Reference: article PMC2680549

Target: N-terminal domain of Bag2 (Bag2-NTD)
Experiment: SEC

Chain of N-terminal domain of Bag2 (Bag2-NTD) (domain or fragment) (Q91YN9 104-194): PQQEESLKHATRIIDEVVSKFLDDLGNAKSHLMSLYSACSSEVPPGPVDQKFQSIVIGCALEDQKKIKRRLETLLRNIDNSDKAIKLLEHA

“N-terminal domain of Bag2 (Bag2-NTD) (domain or fragment)” was tested, and the stoichiometry N was 2.
